Measured values from paper PMC9482650, “Quantitative fragmentomics allow affinity mapping of interactomes” (Nature Communications, 2022).

What follows are binders tested against TJP1_3, Q07157 (assay: holdup assay). Conditions: plain residues with an end cap or a label only (N-terminal biotin on a linker: ado-ado).
Design: key: below the threshold = too weak to quantify, mostly under pKd 3.1 to 4

Chain of TJP1_3, Q07157 (Q07157 416-512): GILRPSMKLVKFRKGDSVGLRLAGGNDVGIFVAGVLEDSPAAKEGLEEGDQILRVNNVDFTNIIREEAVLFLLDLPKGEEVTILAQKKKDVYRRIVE

Row | Binder | pKd
1 | GTMFLRETSL [GUCY1A2, P33402] | below the threshold
2 | DSEEELPTRL [GRK6, P43250] | below the threshold

These binders were tested against DLG5_1, Q8TDM6 (assay: holdup assay). Conditions: plain residues with an end cap or a label only (N-terminal biotin on a linker: ado-ado).
Design: key: below the threshold = too weak to quantify, mostly under pKd 3.1 to 4

Chain of DLG5_1, Q8TDM6 (Q8TDM6 617-713): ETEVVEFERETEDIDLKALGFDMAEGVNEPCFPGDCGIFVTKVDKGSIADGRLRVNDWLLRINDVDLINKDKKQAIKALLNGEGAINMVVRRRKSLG

Row | Binder | pKd
3 | GTMFLRETSL [GUCY1A2, P33402] | below the threshold
4 | DSEEELPTRL [GRK6, P43250] | below the threshold

Each binder was assayed against NHERF2_2, Q15599 (assay: holdup assay). Conditions: plain residues with an end cap or a label only (N-terminal biotin on a linker: ado-ado).
Design: key: below the threshold = too weak to quantify, mostly under pKd 3.1 to 4

Chain of NHERF2_2, Q15599 (Q15599 142-238): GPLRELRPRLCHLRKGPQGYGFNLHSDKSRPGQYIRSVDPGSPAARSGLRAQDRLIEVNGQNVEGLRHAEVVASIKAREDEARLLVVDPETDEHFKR

Row | Binder | pKd
5 | GTMFLRETSL [GUCY1A2, P33402] | 4.56
6 | DSEEELPTRL [GRK6, P43250] | 4.51

What follows are binders tested against T1, MPDZ_12, O75970 (assay: holdup assay). Conditions: plain residues with an end cap or a label only (N-terminal biotin on a linker: ado-ado).
T1 sequence (O75970 1857-1958, limits assumed, looked up): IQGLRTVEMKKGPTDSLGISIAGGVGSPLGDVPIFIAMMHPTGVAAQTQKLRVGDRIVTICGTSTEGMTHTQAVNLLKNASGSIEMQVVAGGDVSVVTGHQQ
Design: key: below the threshold = too weak to quantify, mostly under pKd 3.1 to 4

Row | Binder | pKd
7 | GTMFLRETSL [GUCY1A2, P33402] | below the threshold
8 | DSEEELPTRL [GRK6, P43250] | 3.47

The binders below were run against FRMPD2_3, Q68DX3 (assay: holdup assay). Conditions: plain residues with an end cap or a label only (N-terminal biotin on a linker: ado-ado).
Design: key: below the threshold = too weak to quantify, mostly under pKd 3.1 to 4

Chain of FRMPD2_3, Q68DX3 (Q68DX3 1073-1166): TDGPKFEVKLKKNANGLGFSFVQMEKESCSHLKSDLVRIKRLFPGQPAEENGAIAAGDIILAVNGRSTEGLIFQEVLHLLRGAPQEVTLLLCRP

Row | Binder | pKd
9 | GTMFLRETSL [GUCY1A2, P33402] | below the threshold
10 | DSEEELPTRL [GRK6, P43250] | 3.53

The binders below were run against T2, APBA3_1, O96018 (assay: holdup assay). Conditions: plain residues with an end cap or a label only (N-terminal biotin on a linker: ado-ado).
T2 sequence (O96018 389-490, limits assumed, looked up): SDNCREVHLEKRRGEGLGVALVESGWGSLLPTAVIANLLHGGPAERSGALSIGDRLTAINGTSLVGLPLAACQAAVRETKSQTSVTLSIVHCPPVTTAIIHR
Design: key: below the threshold = too weak to quantify, mostly under pKd 3.1 to 4

Row | Binder | pKd
11 | GTMFLRETSL [GUCY1A2, P33402] | below the threshold
12 | DSEEELPTRL [GRK6, P43250] | below the threshold

What follows are binders tested against T3, APBA1_2, Q02410 (assay: holdup assay). Conditions: plain residues with an end cap or a label only (N-terminal biotin on a linker: ado-ado).
T3 sequence (Q02410 742-832, limits assumed, looked up): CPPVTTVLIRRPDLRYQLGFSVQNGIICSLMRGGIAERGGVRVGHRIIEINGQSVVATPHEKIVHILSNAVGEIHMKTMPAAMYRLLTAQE
Design: key: below the threshold = too weak to quantify, mostly under pKd 3.1 to 4

Row | Binder | pKd
13 | GTMFLRETSL [GUCY1A2, P33402] | 3.61
14 | DSEEELPTRL [GRK6, P43250] | 4.16

The binders below were run against MAGI1_1, Q96QZ7 (assay: holdup assay). Conditions: plain residues with an end cap or a label only (N-terminal biotin on a linker: ado-ado).
Design: key: below the threshold = too weak to quantify, mostly under pKd 3.1 to 4

Chain of MAGI1_1, Q96QZ7 (Q96QZ7 1-106): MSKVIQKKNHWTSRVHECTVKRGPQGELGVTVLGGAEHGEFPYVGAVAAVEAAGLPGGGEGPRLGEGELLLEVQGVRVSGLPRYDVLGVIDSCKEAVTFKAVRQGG

Row | Binder | pKd
15 | GTMFLRETSL [GUCY1A2, P33402] | below the threshold
16 | DSEEELPTRL [GRK6, P43250] | below the threshold

The binders below were run against DLG4_2, P78352 (assay: holdup assay). Conditions: plain residues with an end cap or a label only (N-terminal biotin on a linker: ado-ado).
Design: key: below the threshold = too weak to quantify, mostly under pKd 3.1 to 4

Chain of DLG4_2, P78352 (P78352 155-259): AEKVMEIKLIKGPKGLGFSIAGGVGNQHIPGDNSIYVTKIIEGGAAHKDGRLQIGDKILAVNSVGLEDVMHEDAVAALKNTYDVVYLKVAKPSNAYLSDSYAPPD

Row | Binder | pKd
17 | GTMFLRETSL [GUCY1A2, P33402] | 4.5
18 | DSEEELPTRL [GRK6, P43250] | below the threshold

Each binder was assayed against T4, GRIP1_7, Q9Y3R0 (assay: holdup assay). Conditions: plain residues with an end cap or a label only (N-terminal biotin on a linker: ado-ado).
T4 sequence (Q9Y3R0 999-1096, limits assumed, looked up): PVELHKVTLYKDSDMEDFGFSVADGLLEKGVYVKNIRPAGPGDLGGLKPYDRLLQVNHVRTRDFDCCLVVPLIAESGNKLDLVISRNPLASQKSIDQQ
Design: key: below the threshold = too weak to quantify, mostly under pKd 3.1 to 4

Row | Binder | pKd
19 | GTMFLRETSL [GUCY1A2, P33402] | below the threshold
20 | DSEEELPTRL [GRK6, P43250] | below the threshold

What follows are binders tested against DLG1_1, Q12959 (assay: holdup assay). Conditions: plain residues with an end cap or a label only (N-terminal biotin on a linker: ado-ado).
Design: key: below the threshold = too weak to quantify, mostly under pKd 3.1 to 4

Row | Binder | pKd
21 | GTMFLRETSL [GUCY1A2, P33402] | 4.23
22 | DSEEELPTRL [GRK6, P43250] | below the threshold

What follows are binders tested against AHNAK1, Q09666 (assay: holdup assay). Conditions: plain residues with an end cap or a label only (N-terminal biotin on a linker: ado-ado).
Design: key: below the threshold = too weak to quantify, mostly under pKd 3.1 to 4

Chain of AHNAK1, Q09666 (Q09666 4-100): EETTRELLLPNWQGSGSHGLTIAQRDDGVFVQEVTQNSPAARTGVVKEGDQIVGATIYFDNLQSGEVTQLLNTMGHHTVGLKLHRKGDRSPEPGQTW

Row | Binder | pKd
23 | GTMFLRETSL [GUCY1A2, P33402] | below the threshold
24 | DSEEELPTRL [GRK6, P43250] | below the threshold

These binders were tested against T5, SYNJ2BP, P57105 (assay: holdup assay). Conditions: plain residues with an end cap or a label only (N-terminal biotin on a linker: ado-ado).
T5 sequence (P57105 8-110, limits assumed, looked up): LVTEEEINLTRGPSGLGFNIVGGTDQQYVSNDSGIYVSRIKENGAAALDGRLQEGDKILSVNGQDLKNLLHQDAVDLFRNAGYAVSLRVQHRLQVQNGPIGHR
Design: key: below the threshold = too weak to quantify, mostly under pKd 3.1 to 4

Row | Binder | pKd
25 | GTMFLRETSL [GUCY1A2, P33402] | 5.41
26 | DSEEELPTRL [GRK6, P43250] | 3.5

The binders below were run against Inadl_8, Q8NI35 (assay: holdup assay). Conditions: plain residues with an end cap or a label only (N-terminal biotin on a linker: ado-ado).
Design: key: below the threshold = too weak to quantify, mostly under pKd 3.1 to 4

Chain of Inadl_8, Q8NI35 (Q8NI35 1425-1530): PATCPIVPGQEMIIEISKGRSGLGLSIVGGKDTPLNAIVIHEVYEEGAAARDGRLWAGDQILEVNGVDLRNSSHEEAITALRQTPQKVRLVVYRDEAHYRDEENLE

Row | Binder | pKd
27 | GTMFLRETSL [GUCY1A2, P33402] | 3.9
28 | DSEEELPTRL [GRK6, P43250] | below the threshold

Each binder was assayed against T6, PTPN13_1, Q12923 (assay: holdup assay). Conditions: plain residues with an end cap or a label only (N-terminal biotin on a linker: ado-ado).
T6 sequence (Q12923 1088-1188, limits assumed, looked up): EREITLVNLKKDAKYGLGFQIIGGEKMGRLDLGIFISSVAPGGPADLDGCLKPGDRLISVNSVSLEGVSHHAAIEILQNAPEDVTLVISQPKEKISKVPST
Design: key: below the threshold = too weak to quantify, mostly under pKd 3.1 to 4

Row | Binder | pKd
29 | GTMFLRETSL [GUCY1A2, P33402] | below the threshold
30 | DSEEELPTRL [GRK6, P43250] | below the threshold

Each binder was assayed against GRID2IP_2, A4D2P6 (assay: holdup assay). Conditions: plain residues with an end cap or a label only (N-terminal biotin on a linker: ado-ado).
Design: key: below the threshold = too weak to quantify, mostly under pKd 3.1 to 4

Chain of GRID2IP_2, A4D2P6 (A4D2P6 272-370): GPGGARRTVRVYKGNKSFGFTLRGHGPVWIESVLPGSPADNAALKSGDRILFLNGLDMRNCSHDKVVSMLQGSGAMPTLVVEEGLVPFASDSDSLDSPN

Row | Binder | pKd
31 | GTMFLRETSL [GUCY1A2, P33402] | 4.62
32 | DSEEELPTRL [GRK6, P43250] | below the threshold

These binders were tested against T7, GRIP1_3, Q9Y3R0 (assay: holdup assay). Conditions: plain residues with an end cap or a label only (N-terminal biotin on a linker: ado-ado).
T7 sequence (Q9Y3R0 247-346, limits assumed, looked up): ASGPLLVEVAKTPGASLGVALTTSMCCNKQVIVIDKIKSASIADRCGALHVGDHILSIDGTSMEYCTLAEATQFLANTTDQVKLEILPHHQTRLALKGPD
Design: key: below the threshold = too weak to quantify, mostly under pKd 3.1 to 4

Row | Binder | pKd
33 | GTMFLRETSL [GUCY1A2, P33402] | below the threshold
34 | DSEEELPTRL [GRK6, P43250] | below the threshold

What follows are binders tested against T8, MPP6, Q9NZW5 (assay: holdup assay). Conditions: plain residues with an end cap or a label only (N-terminal biotin on a linker: ado-ado).
T8 sequence (Q9NZW5 125-219, limits assumed, looked up): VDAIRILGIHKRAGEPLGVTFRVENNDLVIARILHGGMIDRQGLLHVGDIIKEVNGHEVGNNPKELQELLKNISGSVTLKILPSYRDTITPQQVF
Design: key: below the threshold = too weak to quantify, mostly under pKd 3.1 to 4

Row | Binder | pKd
35 | GTMFLRETSL [GUCY1A2, P33402] | below the threshold
36 | DSEEELPTRL [GRK6, P43250] | below the threshold

The binders below were run against GRID2IP_1, A4D2P6 (assay: holdup assay). Conditions: plain residues with an end cap or a label only (N-terminal biotin on a linker: ado-ado).
Design: key: below the threshold = too weak to quantify, mostly under pKd 3.1 to 4

Chain of GRID2IP_1, A4D2P6 (A4D2P6 1-87): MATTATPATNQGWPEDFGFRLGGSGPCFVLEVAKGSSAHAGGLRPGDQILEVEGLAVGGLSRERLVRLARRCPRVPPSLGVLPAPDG

Row | Binder | pKd
37 | GTMFLRETSL [GUCY1A2, P33402] | below the threshold
38 | DSEEELPTRL [GRK6, P43250] | below the threshold

What follows are binders tested against T9, PDZD7_3, Q9H5P4 (assay: holdup assay). Conditions: plain residues with an end cap or a label only (N-terminal biotin on a linker: ado-ado).
T9 sequence (Q9H5P4 857-944, limits assumed, looked up): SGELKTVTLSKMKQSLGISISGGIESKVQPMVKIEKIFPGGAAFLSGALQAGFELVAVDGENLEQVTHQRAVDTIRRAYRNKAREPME
Design: key: below the threshold = too weak to quantify, mostly under pKd 3.1 to 4

Row | Binder | pKd
39 | GTMFLRETSL [GUCY1A2, P33402] | 4.97
40 | DSEEELPTRL [GRK6, P43250] | 4.18

Each binder was assayed against PDZRN4_1, Q6ZMN7 (assay: holdup assay). Conditions: plain residues with an end cap or a label only (N-terminal biotin on a linker: ado-ado).
Design: key: below the threshold = too weak to quantify, mostly under pKd 3.1 to 4

Chain of PDZRN4_1, Q6ZMN7 (Q6ZMN7 213-318): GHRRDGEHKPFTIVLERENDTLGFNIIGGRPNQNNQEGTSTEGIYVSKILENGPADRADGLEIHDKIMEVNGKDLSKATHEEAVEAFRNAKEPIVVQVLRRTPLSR

Row | Binder | pKd
41 | GTMFLRETSL [GUCY1A2, P33402] | 5.71
42 | DSEEELPTRL [GRK6, P43250] | below the threshold

What follows are binders tested against T10, DFNB31_1, Q9P202 (assay: holdup assay). Conditions: plain residues with an end cap or a label only (N-terminal biotin on a linker: ado-ado).
T10 sequence (Q9P202 135-233, limits assumed, looked up): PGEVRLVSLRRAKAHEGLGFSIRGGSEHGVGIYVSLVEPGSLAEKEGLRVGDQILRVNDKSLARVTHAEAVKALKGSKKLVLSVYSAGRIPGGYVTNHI
Design: key: below the threshold = too weak to quantify, mostly under pKd 3.1 to 4

Row | Binder | pKd
43 | GTMFLRETSL [GUCY1A2, P33402] | 4.85
44 | DSEEELPTRL [GRK6, P43250] | below the threshold

The binders below were run against T11, DFNB31_3, Q9P202 (assay: holdup assay). Conditions: plain residues with an end cap or a label only (N-terminal biotin on a linker: ado-ado).
T11 sequence (Q9P202 811-907, limits assumed, looked up): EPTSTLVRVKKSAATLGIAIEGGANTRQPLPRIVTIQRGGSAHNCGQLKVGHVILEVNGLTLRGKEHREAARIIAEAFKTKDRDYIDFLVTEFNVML
Design: key: below the threshold = too weak to quantify, mostly under pKd 3.1 to 4

Row | Binder | pKd
45 | GTMFLRETSL [GUCY1A2, P33402] | 3.5
46 | DSEEELPTRL [GRK6, P43250] | 3.53

Each binder was assayed against MAGI1_2, Q96QZ7 (assay: holdup assay). Conditions: plain residues with an end cap or a label only (N-terminal biotin on a linker: ado-ado).
Design: key: below the threshold = too weak to quantify, mostly under pKd 3.1 to 4

Chain of MAGI1_2, Q96QZ7 (Q96QZ7 456-580): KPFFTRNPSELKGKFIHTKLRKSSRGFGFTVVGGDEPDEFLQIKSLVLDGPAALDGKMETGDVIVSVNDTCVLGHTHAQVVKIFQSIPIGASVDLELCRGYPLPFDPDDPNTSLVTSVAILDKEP

Row | Binder | pKd
47 | GTMFLRETSL [GUCY1A2, P33402] | 4.24
48 | DSEEELPTRL [GRK6, P43250] | below the threshold

These binders were tested against DLG4_3, P78352 (assay: holdup assay). Conditions: plain residues with an end cap or a label only (N-terminal biotin on a linker: ado-ado).
Design: key: below the threshold = too weak to quantify, mostly under pKd 3.1 to 4

Chain of DLG4_3, P78352 (P78352 306-403): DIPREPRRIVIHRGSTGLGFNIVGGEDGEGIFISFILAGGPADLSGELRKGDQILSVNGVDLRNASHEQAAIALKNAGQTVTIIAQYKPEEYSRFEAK

Row | Binder | pKd
49 | GTMFLRETSL [GUCY1A2, P33402] | 4.86
50 | DSEEELPTRL [GRK6, P43250] | below the threshold

What follows are binders tested against T12, SHANK1, Q9Y566 (assay: holdup assay). Conditions: plain residues with an end cap or a label only (N-terminal biotin on a linker: ado-ado).
T12 sequence (Q9Y566 658-767, limits assumed, looked up): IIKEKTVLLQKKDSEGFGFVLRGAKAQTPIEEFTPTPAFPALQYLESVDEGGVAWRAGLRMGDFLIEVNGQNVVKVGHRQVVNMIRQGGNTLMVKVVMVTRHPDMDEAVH
Design: key: below the threshold = too weak to quantify, mostly under pKd 3.1 to 4

Row | Binder | pKd
51 | GTMFLRETSL [GUCY1A2, P33402] | 4.33
52 | DSEEELPTRL [GRK6, P43250] | 4.71
